Assay results reported in PMC10713552 (Communications Biology, 2023).
Read-outs that look alike come from different tables or passages of the source.

Columns and labels:
Assay in all cases: BLI
[1] = molecular target: T1, Omicron BA.1 spike protein ectodomain (BLI) (SARS-CoV-2 Omicron BA.1, strain)
[2] = molecular target: T2, D614G-Hexapro (WT) spike ectodomain (SARS-CoV-2 Wuhan-Hu-1 D614G, D614G)
[3] = molecular target: Omicron BA.2.12 spike protein ectodomain (BLI) (SARS-CoV-2 Omicron BA.2.12.1, strain); conditions: both partners purified
[4] = molecular target: Omicron BA.5 spike protein ectodomain (BLI) (SARS-CoV-2 Omicron BA.5 (BA.4/5 spike), strain); conditions: both partners purified
[5] = molecular target: T1, Omicron BA.1 spike protein ectodomain …; conditions: both partners purified
[6] = molecular target: T2, D614G-Hexapro (WT) spike ectodomain; conditions: both partners purified
[7] = molecular target: Omicron BA.2 spike protein ectodomain (BLI) (SARS-CoV-2, Omicron BA.2, strain); conditions: both partners purified

B1: 0381-YN3_T65H (antibody, V domains shown)
VH: QVQLQQWGPGLVNPSETLSLTCSVSGGSFATENYYWSWIRQHPGEGLEWIGNIYFSGNHYYNPSLNNRFTISFDTSKNHLSLKLPSVTAADTAVYYCARGTIYFDYSGYRRVDPFHIWGQGTMVIVSS
VL: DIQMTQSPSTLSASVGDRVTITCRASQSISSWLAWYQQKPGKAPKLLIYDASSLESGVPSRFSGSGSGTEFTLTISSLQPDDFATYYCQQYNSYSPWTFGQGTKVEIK
notes: source: Expi293F, transfected
Which Kd [1] does the source give for B1 here?
Its Kd is 8040 nM.

And the koff [1]?
The koff was 0.00217 s⁻¹.

And the kon [1]?
The kon was 269 M⁻¹ s⁻¹.

And the Kd [2]?
The Kd was 663 nM.

What about the koff [2] of the same binder?
The koff was 0.00016 s⁻¹.

And the kon [2]?
Its kon is 242 M⁻¹ s⁻¹.

B2: 0380-YN3_T65G (antibody, V domains shown)
VH: QVQLQQWGPGLVNPSETLSLTCSVSGGSFATENYYWSWIRQHPGEGLEWIGNIYFSGNGYYNPSLNNRFTISFDTSKNHLSLKLPSVTAADTAVYYCARGTIYFDYSGYRRVDPFHIWGQGTMVIVSS
VL: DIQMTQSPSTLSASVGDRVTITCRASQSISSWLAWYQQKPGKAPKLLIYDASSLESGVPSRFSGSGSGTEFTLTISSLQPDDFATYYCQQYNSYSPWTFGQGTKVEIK
notes: source: Expi293F, transfected
With B2 as the binder, how does the Kd [1] read?
The Kd was 4980 nM.

And the koff [1]?
The koff was 0.00218 s⁻¹.

And the kon [1]?
Its kon is 438 M⁻¹ s⁻¹.

And the Kd [2]?
Its Kd is 77.3 nM.

What about the koff [2] of the same binder?
The koff was 0.000311 s⁻¹.

And the kon [2]?
The kon was 4020 M⁻¹ s⁻¹.

B3: N3-1_Q (antibody, V domains shown)
VH: QVQLQQWGPGLVNPSETLSLTCSVSGGSFATENYYWSWIRQHPGEGLEWIGNIYFSGNTYYNPSLNNRFTISFDTSKNHLSLKLPSVTAADTAVYYCARGTIYFDQSGYRRVDPFHIWGQGTMVIVSS
VL: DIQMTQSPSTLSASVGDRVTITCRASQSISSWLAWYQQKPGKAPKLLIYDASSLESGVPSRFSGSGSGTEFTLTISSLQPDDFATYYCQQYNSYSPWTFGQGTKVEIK
notes: IgG1
For B3, which Kd [3] is on record?
Its Kd is 291 nM.

What about the koff [3] of the same binder?
Its koff is 0.00336 s⁻¹.

And the kon [3]?
Its kon is 11500 M⁻¹ s⁻¹.

What about the Kd [4] of the same binder?
Its Kd is 771 nM.

What about the koff [4] of the same binder?
The koff was 0.00666 s⁻¹.

And the kon [4]?
The kon was 8640 M⁻¹ s⁻¹.

What about the Kd [5] of the same binder?
Its Kd is 4800 nM.

What about the koff [5] of the same binder?
Its koff is 0.015 s⁻¹.

And the kon [5]?
Its kon is 3120 M⁻¹ s⁻¹.

What about the kon [6] of the same binder?
The kon was 1000 M⁻¹ s⁻¹.

And the Kd [7]?
The Kd was 483 nM.

And the koff [7]?
Its koff is 0.00403 s⁻¹.

And the kon [7]?
Its kon is 8360 M⁻¹ s⁻¹.

B4: 0354-MN3_T65V (antibody, V domains shown)
VH: QVQLQQWGPGLVNPSETLSLTCSVSGGSFATENYYWSWIRQHPGEGLEWIGNIYFSGNVYYNPSLNNRFTISFDTSKNHLSLKLPSVTAADTAVYYCARGTIYFDMSGYRRVDPFHIWGQGTMVIVSS
VL: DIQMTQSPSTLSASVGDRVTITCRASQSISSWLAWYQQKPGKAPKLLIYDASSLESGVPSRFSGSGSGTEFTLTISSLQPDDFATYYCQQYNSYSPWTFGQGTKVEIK
notes: source: Expi293F, transfected
With B4 as the binder, how does the Kd [1] read?
The Kd was 67.6 nM.

What about the koff [1] of the same binder?
The koff was 0.00153 s⁻¹.

And the kon [1]?
The kon was 22700 M⁻¹ s⁻¹.

What about the Kd [2] of the same binder?
Its Kd is 292 nM.

What about the koff [2] of the same binder?
Its koff is 0.00118 s⁻¹.

What about the kon [2] of the same binder?
Its kon is 4030 M⁻¹ s⁻¹.

B5: 0362-N3_T65H (antibody, V domains shown)
VH: QVQLQQWGPGLVNPSETLSLTCSVSGGSFATENYYWSWIRQHPGEGLEWIGNIYFSGNHYYNPSLNNRFTISFDTSKNHLSLKLPSVTAADTAVYYCARGTIYFDRSGYRRVDPFHIWGQGTMVIVSS
VL: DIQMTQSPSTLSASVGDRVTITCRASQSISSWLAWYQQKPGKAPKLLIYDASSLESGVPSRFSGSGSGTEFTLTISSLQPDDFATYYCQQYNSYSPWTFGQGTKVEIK
notes: source: Expi293F, transfected
Which results are given for B5?
Kd [1]: 378 nM; koff [1]: 0.00114 s⁻¹; kon [1]: 3020 M⁻¹ s⁻¹; Kd [2]: 318 nM; koff [2]: 0.00046 s⁻¹; kon [2]: 1450 M⁻¹ s⁻¹

B6: 0378-YN3_T65E (antibody, V domains shown)
VH: QVQLQQWGPGLVNPSETLSLTCSVSGGSFATENYYWSWIRQHPGEGLEWIGNIYFSGNEYYNPSLNNRFTISFDTSKNHLSLKLPSVTAADTAVYYCARGTIYFDYSGYRRVDPFHIWGQGTMVIVSS
VL: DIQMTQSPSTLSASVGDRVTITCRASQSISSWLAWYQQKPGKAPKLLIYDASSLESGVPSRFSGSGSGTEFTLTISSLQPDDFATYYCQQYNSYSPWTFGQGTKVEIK
notes: source: Expi293F, transfected
B6 was tested. Which Kd [1] did it give?
The Kd was 1740 nM.

What about the koff [1] of the same binder?
The koff was 0.000439 s⁻¹.

And the kon [1]?
The kon was 253 M⁻¹ s⁻¹.

And the Kd [2]?
Its Kd is 0.186 nM.

What about the koff [2] of the same binder?
The koff was 0.000168 s⁻¹.

And the kon [2]?
The kon was 906000 M⁻¹ s⁻¹.

B7: 0349-MN3_T65P (antibody, V domains shown)
VH: QVQLQQWGPGLVNPSETLSLTCSVSGGSFATENYYWSWIRQHPGEGLEWIGNIYFSGNPYYNPSLNNRFTISFDTSKNHLSLKLPSVTAADTAVYYCARGTIYFDMSGYRRVDPFHIWGQGTMVIVSS
VL: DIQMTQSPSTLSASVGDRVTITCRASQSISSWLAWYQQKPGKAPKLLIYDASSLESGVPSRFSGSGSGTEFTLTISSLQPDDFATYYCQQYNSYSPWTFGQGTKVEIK
notes: source: Expi293F, transfected
With B7 as the binder, how does the Kd [1] read?
Its Kd is 8260 nM.

What about the koff [1] of the same binder?
Its koff is 0.00219 s⁻¹.

What about the kon [1] of the same binder?
The kon was 265 M⁻¹ s⁻¹.

What about the Kd [2] of the same binder?
The Kd was 2.97 nM.

What about the koff [2] of the same binder?
Its koff is 0.00117 s⁻¹.

What about the kon [2] of the same binder?
Its kon is 392000 M⁻¹ s⁻¹.

B8: 0363-N3_T65I (antibody, V domains shown)
VH: QVQLQQWGPGLVNPSETLSLTCSVSGGSFATENYYWSWIRQHPGEGLEWIGNIYFSGNIYYNPSLNNRFTISFDTSKNHLSLKLPSVTAADTAVYYCARGTIYFDRSGYRRVDPFHIWGQGTMVIVSS
VL: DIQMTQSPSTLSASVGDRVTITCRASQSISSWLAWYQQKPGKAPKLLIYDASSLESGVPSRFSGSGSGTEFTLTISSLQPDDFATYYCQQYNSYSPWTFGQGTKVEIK
notes: source: Expi293F, transfected
What does the source list for B8?
Kd [1]: 1580 nM; koff [1]: 0.00106 s⁻¹; kon [1]: 673 M⁻¹ s⁻¹; Kd [2]: 71 nM; koff [2]: 2.3e-05 s⁻¹; kon [2]: 324 M⁻¹ s⁻¹

B9: 0344-MN3_T65I (antibody, V domains shown)
VH: QVQLQQWGPGLVNPSETLSLTCSVSGGSFATENYYWSWIRQHPGEGLEWIGNIYFSGNIYYNPSLNNRFTISFDTSKNHLSLKLPSVTAADTAVYYCARGTIYFDMSGYRRVDPFHIWGQGTMVIVSS
VL: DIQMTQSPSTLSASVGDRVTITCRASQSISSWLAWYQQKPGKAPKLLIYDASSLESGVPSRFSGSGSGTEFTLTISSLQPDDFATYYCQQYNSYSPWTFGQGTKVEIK
notes: source: Expi293F, transfected
Which results are given for B9?
Kd [1]: 151 nM; koff [1]: 0.0026 s⁻¹; kon [1]: 17200 M⁻¹ s⁻¹; Kd [2]: 1670 nM; koff [2]: 0.0005 s⁻¹; kon [2]: 299 M⁻¹ s⁻¹

B10: 0329-LN3_T65N (antibody, V domains shown)
VH: QVQLQQWGPGLVNPSETLSLTCSVSGGSFATENYYWSWIRQHPGEGLEWIGNIYFSGNNYYNPSLNNRFTISFDTSKNHLSLKLPSVTAADTAVYYCARGTIYFDLSGYRRVDPFHIWGQGTMVIVSS
VL: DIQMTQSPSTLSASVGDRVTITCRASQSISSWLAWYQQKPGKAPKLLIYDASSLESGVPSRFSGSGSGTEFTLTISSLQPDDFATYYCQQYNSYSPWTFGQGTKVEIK
notes: source: Expi293F, transfected
Which results are given for B10?
Kd [1]: 98.7 nM; koff [1]: 0.000925 s⁻¹; kon [1]: 9380 M⁻¹ s⁻¹; Kd [2]: 187 nM; koff [2]: 0.000519 s⁻¹; kon [2]: 2780 M⁻¹ s⁻¹
